According to publication PMC1343528 (The Journal of Cell Biology, 2005):

Molecular target: calmodulin, purified (UniProt P0DP23 1-149)
Assay: pull-down

binding result: binds
B1: GST fusion of α1C aa 1581–1690 with EEDAAA in place of TVGKFY (Mut6) (domain or fragment)
chain: not shown
